# T1: Fur (ferric uptake regulator) (Escherichia coli (strain of the fur …, UniProt P0A9A9 1-148))
# T1 sequence: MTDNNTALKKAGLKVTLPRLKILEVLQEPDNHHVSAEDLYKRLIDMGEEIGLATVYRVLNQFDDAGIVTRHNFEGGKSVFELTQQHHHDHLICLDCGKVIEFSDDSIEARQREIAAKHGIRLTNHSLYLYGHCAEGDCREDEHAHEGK
# Biological target: T1, Fur (ferric uptake regulator)
# Assay: EMSA; dimer and tetramer complexes; EMSA as in cited ref 52, binding buffer not given; annealing buffer 10 mM Tris-HCl, 50 mM NaCl, 1 mM EDTA
# Conditions: protein: recombinant; tags: IMPACT system (intein tag, self-cleaved; no residual tag stated); chain copies: 4; label: Cy3 at 3' end of S3 as printed; blunt
binder,measurement,value
"fecIR Fur box, E. coli 83972 (dsDNA) DNA 1: TCCAATTGTAATGATAACCATTCTCATATTAATATGACTACGTGA DNA 2: TCACGTAGTCATATTAATATGAGAATGGTTATCATTACAATTGGA",binding result,binds
